Usually Kd stands for the equilibrium constant for the complex coming apart. A higher Kd goes with a looser complex.

The text below walks through data of patent US20070111281A1.

For experiment [1], the target named is shFcγRIIIa-H6 (soluble human FcγRIIIa with hexahistidine tag, Example 3) (human) (UniProt P08637). The experiment in a line: SPR (Biacore1000), receptor coupled to CM5 chip, IgG in flow, steady state. (Surface plasmon resonance follows binding to a sensor surface in real time, without labels.)
For experiment [2], the target named is shFcγRIIIa-Q162-H6 (soluble human FcγRIIIa lacking glycosylation at position 162, hexahistidine tag, Example 3) (human) (UniProt P08637). The experiment is described as above.

As for “IgG mutant 20 S239W, non-GE glycoform (antibody)”, the values for the Kd in experiment [1] and in experiment [2] were 688 nM and 372 nM, respectively.
Consider “control antibody (humanized IgG1), non-GE glycoform”, for which the Kd in experiment [1] came out at 246 nM; in experiment [2] it was 214 nM.
With “IgG mutant 22 F243E, non-GE glycoform (antibody)”, the Kd in experiment [1] came to 887 nM; in experiment [2], 428 nM.
For the substance “IgG mutant 88 T260H, non-GE glycoform (antibody)”, the Kd worked out at 276 nM in experiment [1] and 290 nM in experiment [2].
Regarding “IgG mutant 98 S239E, non-GE glycoform (antibody)”, the figures for the Kd in experiment [1] and in experiment [2] were 155 nM and 170 nM, respectively.
Regarding “IgG mutant 43 S239D, non-GE glycoform (antibody)”, the Kd was 85.7 nM in experiment [1] and 122 nM in experiment [2].
In the case of “IgG mutant 85 F243H, non-GE glycoform (antibody)”, the Kd in experiment [1] was determined as 542 nM; in experiment [2], 382 nM.
Turning to “IgG mutant 9 H268D, non-GE glycoform (antibody)”, the Kd amounted to 124 nM in experiment [1] and 87.3 nM in experiment [2].
“IgG mutant 30 H268E, non-GE glycoform (antibody)”: the Kd in experiment [1] came out at 189 nM; in experiment [2] it was 152 nM.
